# Assay results published in publication PMC2806667 (Molecular microbiology, 2009).
# T1: GST-VID (full length) (Bacillus subtilis, UniProt P37963 1-575)
# T1 sequence (looked up): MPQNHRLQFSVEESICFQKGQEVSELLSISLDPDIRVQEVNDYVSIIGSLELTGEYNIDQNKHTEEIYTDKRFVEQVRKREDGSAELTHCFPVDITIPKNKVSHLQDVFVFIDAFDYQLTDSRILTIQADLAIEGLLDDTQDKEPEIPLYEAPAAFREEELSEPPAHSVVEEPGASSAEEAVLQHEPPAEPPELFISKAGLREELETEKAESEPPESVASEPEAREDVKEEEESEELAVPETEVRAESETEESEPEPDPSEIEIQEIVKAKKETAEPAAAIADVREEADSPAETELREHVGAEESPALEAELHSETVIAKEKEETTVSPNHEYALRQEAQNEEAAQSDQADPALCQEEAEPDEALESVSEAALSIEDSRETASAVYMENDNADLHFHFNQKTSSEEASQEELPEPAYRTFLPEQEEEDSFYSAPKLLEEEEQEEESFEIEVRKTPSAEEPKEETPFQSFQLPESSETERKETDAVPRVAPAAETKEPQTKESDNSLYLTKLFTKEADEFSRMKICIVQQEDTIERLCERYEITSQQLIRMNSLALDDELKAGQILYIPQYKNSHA
# T2: His6-VID full length (Bacillus subtilis, UniProt P37963 1-575)
# T2 sequence (looked up): T1 sequence (looked up)
# B1: His6-IVA (SpoIVA) (natural protein, Bacillus subtilis, UniProt P35149 1-492, looked up)
# chain: MEKVDIFKDIAERTGGDIYLGVVGAVRTGKSTFIKKFMELVVLPNISNEADRARAQDELPQSAAGKTIMTTEPKFVPNQAMSVHVSDGLDVNIRLVDCVGYTVPGAKGYEDENGPRMINTPWYEEPIPFHEAAEIGTRKVIQEHSTIGVVITTDGTIGDIARSDYIEAEERVIEELKEVGKPFIMVINSVRPYHPETEAMRQDLSEKYDIPVLAMSVESMRESDVLSVLREALYEFPVLEVNVNLPSWVMVLKENHWLRESYQESVKETVKDIKRLRDVDRVVGQFSEFEFIESAGLAGIELGQGVAEIDLYAPDHLYDQILKEVVGVEIRGRDHLLELMQDFAHAKTEYDQVSDALKMVKQTGYGIAAPALADMSLDEPEIIRQGSRFGVRLKAVAPSIHMIKVDVESEFAPIIGTEKQSEELVRYLMQDFEDDPLSIWNSDIFGRSLSSIVREGIQAKLSLMPENARYKLKETLERIINEGSGGLIAIIL
# B2: GST-VID L201-A575 fragment (domain or fragment, Bacillus subtilis, UniProt P37963 201-575, looked up)
# chain: LREELETEKAESEPPESVASEPEAREDVKEEEESEELAVPETEVRAESETEESEPEPDPSEIEIQEIVKAKKETAEPAAAIADVREEADSPAETELREHVGAEESPALEAELHSETVIAKEKEETTVSPNHEYALRQEAQNEEAAQSDQADPALCQEEAEPDEALESVSEAALSIEDSRETASAVYMENDNADLHFHFNQKTSSEEASQEELPEPAYRTFLPEQEEEDSFYSAPKLLEEEEQEEESFEIEVRKTPSAEEPKEETPFQSFQLPESSETERKETDAVPRVAPAAETKEPQTKESDNSLYLTKLFTKEADEFSRMKICIVQQEDTIERLCERYEITSQQLIRMNSLALDDELKAGQILYIPQYKNSHA
# B3: His6-VID(121-575) (domain or fragment, Bacillus subtilis, UniProt P37963 121-575, looked up)
# chain: DSRILTIQADLAIEGLLDDTQDKEPEIPLYEAPAAFREEELSEPPAHSVVEEPGASSAEEAVLQHEPPAEPPELFISKAGLREELETEKAESEPPESVASEPEAREDVKEEEESEELAVPETEVRAESETEESEPEPDPSEIEIQEIVKAKKETAEPAAAIADVREEADSPAETELREHVGAEESPALEAELHSETVIAKEKEETTVSPNHEYALRQEAQNEEAAQSDQADPALCQEEAEPDEALESVSEAALSIEDSRETASAVYMENDNADLHFHFNQKTSSEEASQEELPEPAYRTFLPEQEEEDSFYSAPKLLEEEEQEEESFEIEVRKTPSAEEPKEETPFQSFQLPESSETERKETDAVPRVAPAAETKEPQTKESDNSLYLTKLFTKEADEFSRMKICIVQQEDTIERLCERYEITSQQLIRMNSLALDDELKAGQILYIPQYKNSHA
# B4: His6-VID(121-521) (domain or fragment, Bacillus subtilis, UniProt P37963 121-521, looked up)
# chain: DSRILTIQADLAIEGLLDDTQDKEPEIPLYEAPAAFREEELSEPPAHSVVEEPGASSAEEAVLQHEPPAEPPELFISKAGLREELETEKAESEPPESVASEPEAREDVKEEEESEELAVPETEVRAESETEESEPEPDPSEIEIQEIVKAKKETAEPAAAIADVREEADSPAETELREHVGAEESPALEAELHSETVIAKEKEETTVSPNHEYALRQEAQNEEAAQSDQADPALCQEEAEPDEALESVSEAALSIEDSRETASAVYMENDNADLHFHFNQKTSSEEASQEELPEPAYRTFLPEQEEEDSFYSAPKLLEEEEQEEESFEIEVRKTPSAEEPKEETPFQSFQLPESSETERKETDAVPRVAPAAETKEPQTKESDNSLYLTKLFTKEADEFSR
# Legend:
# GST-VID (full length) = target: T1, GST-VID (full length); assay: pull-down
# His6-VID full length = target: T2, His6-VID full length; assay: far-Western, overlay or dot blot
# His6-IVA (SpoIVA) [1] = target: B1; assay: pull-down
# His6-IVA (SpoIVA) [2] = target: B1; assay: far-Western, overlay or dot blot
binder,measurement,setting,value
B1,binding result,GST-VID (full length),binds
same,binding result,His6-VID full length,binds
B2,binding result,His6-IVA (SpoIVA) [1],binds
B3,binding result,His6-IVA (SpoIVA) [2],binds
B4,binding result,His6-IVA (SpoIVA) [2],binds
